Data on four molecules can be found in publication PMC8864220, “Transcriptional Regulation of the Creatine Utilization Genes of Corynebacterium glutamicum ATCC 14067 by AmtR, a Central Nitrogen Regulator”.

B1: PcreT-1 (oligos PcrnT-1-S/A) (dsDNA)
DNA 1: ACCACCAATGAAACCTATCGGTCTATAGAAATTGACATTGCT
DNA 2: AGCAATGTCAATTTCTATAGACCGATAGGTTTCATTGGTGGT
B2: PcreT-2 (oligos PcrnT-2-S/A) (dsDNA)
DNA 1: ATTTATATTCTTTTCTATCACCCTATAGAAACATATTGGACG
DNA 2: CGTCCAATATGTTTCTATAGGGTGATAGAAAAGAATATAAAT
B3: PhyuB-2 (dsDNA)
DNA 1: CCCGGGGTGATTTTCTATCGTGTGATAGGTTTAATTCTGTTG
DNA 2: CAACAGAATTAAACCTATCACACGATAGAAAATCACCCCGGG
B4: PhyuB-1 (dsDNA)
DNA 1: TTGAAAACTTTTCGATAGAGCAATAGAAATTTCCCAGCCCAA
DNA 2: TTGGGCTGGGAAATTTCTATTGCTCTATCGAAAAGTTTTCAA

The target of the series is T1, AmtR (Corynebacterium glutamicum ATCC 14067, UniProt H7C699 1-222).
T1 sequence: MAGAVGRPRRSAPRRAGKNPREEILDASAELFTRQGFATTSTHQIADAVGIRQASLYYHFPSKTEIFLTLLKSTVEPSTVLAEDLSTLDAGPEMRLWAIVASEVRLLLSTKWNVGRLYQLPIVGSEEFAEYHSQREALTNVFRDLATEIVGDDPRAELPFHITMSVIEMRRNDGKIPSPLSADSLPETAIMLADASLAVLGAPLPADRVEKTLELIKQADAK
Briefly: EMSA; EMSA, 20 ul: 10 mM Tris pH 7.0, 50 mM KCl, 1 mM DTT, 5 mM MgCl (so in the source), 10 mM EDTA, 2.5% glycerol, 0.05% NP-40, 50 ng/ul poly(dIdC); 100 ng DNA, 0-0.8 ug AmtR; 6% native PAGE, 0.5x TBE, GelRed; temperature not stated. The note with it: protein: recombinant; tags: C-terminal His6; chain copies: 2; blunt. Background: In EMSA bound probe runs differently from free probe, usually more slowly.
In the case of B1, the binding result is “binds”.
For the molecule B2, the binding result is “binds”.
The entry for B3 is “binds”.
The entry for B4 is “binds”.
